How the values were obtained:
[1] = target: T1, HIV-1 gp120 protein from the JRCSF.JB strain (HIV-1 group M subtype B, JRCSF (clone …, UniProt P20871, strain)); assay: ELISA; conditions: both partners purified
[2] = target: T1, HIV-1 gp120 protein from the JRCSF.JB …; assay: ELISA; antigens (2 μg/mL) coated on 96-well plates overnight at 4 °C; antibodies serially diluted in disruption buffer, 1 h; HRP goat anti-human IgG, ABTS, 405 nm; conditions: both partners purified
[3] = target: HIV-1 gp120 protein from the BaL.01 strain (HIV-1 subtype B, BaL.01, UniProt Q2MKA9, strain); assay: as above; conditions: both partners purified
[4] = target: HIV-1 gp120 protein from the YU2.DG strain (HIV-1 group M subtype B, YU-2 (clone …, UniProt P35961, strain)); assay: as above; conditions: both partners purified
HIV Env on HL2/3 cells = target: T2, HIV Env on HL2/3 cells (HIV-1 group M subtype B, HXB2 (stand-in …, UniProt P04578, strain)); assay: flow cytometry on cells; conditions: one partner purified
T2 construct: source: HL2/3 cells (NIH AIDS Program), expressing HIV Env, on the cell surface

[5] = target: HIV-1 Env on TNF-α-activated ACH-2 latent HIV-1 cells (HIV-1 group M subtype B, BRU/LAI (ACH-2 …, UniProt P03377, strain)); assay: flow cytometry on cells; conditions: one partner purified

Measured: binding result

B1: CH235.12 (antibody, V domains shown)
VH: QVRLAQYGGGVKRLGATMTLSCVASGYTFNDYYIHWVRQAPGQGFELLGYIDPANGRPDYAGALRERLSFYRDKSMETLYMDLRSLRYDDTAMYYCVRNVGTAGSLLHYDHWGSGSPVIVSS
VL: EIVLTQSPATLSASPGERVTLTCRASRSVRNNVAWYQHKGGQSPRLLIYDASTRAAGVPARFSGSASGTEFTLAISNLESEDFTVYFCLQYNNWWTFGQGTRVDIK
binds: [1]

B2: FD22 (antibody, V domains shown)
VH: QVQLSQSGGGAVQPGKSLTLSCRAYGFHLFSYVVVWVRQTPQNGLEWVAGAASGGWPQEFMNSVRGRFSISRDDYTVSLQMNALRVDDSGLYFCAQERGLHRLDGAVKFGRWFRAWGQGSQVVVTS
VL: QSALTQPASVSGSPGQSITLSCTGADNSVSWYQVVPGRAPKLLIFEVNVRPSEVSDRFSGSKSGDTASLTISRLQIEDESDYYCVTRRGDVTYLFGSGTRVSVL
notes: also called FD22-biotin
not listed: [1]
binds: all other assays above
